In patent US9284369B2, “Inhibition of angiogenesis” (Genentech, Inc., priority 2007, dated 2016):

Columns and labels:
Bv8 expression = assay: Regulation of Bv8 gene expression in cultured mouse BMMNCs (Taqman); type: cell-based; conditions: for stimulation of Bv8 expression in CD11b+Gr1+ cells: 20 pg/ml G-CSF, 4 hrs
Procedure: RNA from tissues or cells was prepared using the RNeasy Mini Kit® (Qiagen). 50 ng total RNA per reaction was used for the real time PCR (Taqman™) analysis. For mouse/human Bv8 and EG-VEGF/Bv8 receptor 1 (PKR-1/EG-VEGFR1, R-1), testis RNA (BD Biosciences) served as control. For mouse/human EG-VEGF/Bv8 receptor 2 (PKR-2/EG-VEGFR2, R2), hypothalamus or whole brain (BD Biosciences) served as the control tissues. Reactions were run on 9600 Emulation mode of 7500 Real […] time PCR system (Applied Biosystems) and the absolute quantification with standard curve was used with Sequence Detection System (SDS) software. The expression level of each gene was further quantified against the house-keeping gene RPL19 in the same sample. To confirm the expression of VEGFR-1, VEGFR-2, EG-VEGF/Bv8 R1 and EG-VEGF/Bv8 R2 in the tumor-associated endothelial cells, standard RT-PCR was conducted using the Titan One Tube™ RT-PCR system (Roche) and the end products were checked on 2% agarose gel (Invitrogen) for the correct size. The sequence of Taqman™ primers are as follows: […]
Recombinant mouse MCP-1, MIP-1α, MIP-1β, MIP-2, bFGF, VEGF, GM-CSF, G-CSF, SDF-1 and TNFα were purchased from R&D Systems (Minneapolis, Minn.). Recombinant mouse KC, IFNγ, Bv8 (Prokineticin-2), IL-4, IL-10, IL-13, TGF-β were from PeproTech Inc. (Rocky Hill, N.J.). […] Conditioned media at 1:3 dilution were used (final FBS concentration was 0.17%). Data were normalized against total cell number. BM cells were flushed from mouse leg bones with DMEM containing 10% FBS. Cells were centrifuged at 1200 rpm for 5 min and resuspended in HBSS media containing 0.2% BSA (low endotoxin, Serologicals Corp. Norcross, Ga.). Two million cells were incubated in 24-well plates with various cytokines for 4 hr at 37° C. in a 5% CO2 incubator. Cells were then transferred in eppendorf tubes, centrifuged and lysed by RNA lysis buffer (Qiagen, Valencia, Calif.). Bv8 expression was assessed by Taqman™ with RPL19 (Ribosomal Protein L19) as the internal control gene. In some cases, CD11b+Gr1+ or CD11b−Gr1− BM cells were obtained using FACS sorting.

CD11b+Gr1+ cells = assay: G-CSF-induced mobilization of CD11b+Gr1+ cells; type: in vivo, mouse; conditions: sub-maximal dose 2 μg, within six hours
Procedure: To determine the role of Bv8 in G-CSF-induced mobilization of CD11b+Gr1+ cells, Balb/c nude mice received two doses of anti-Bv8 antibodies (5+5 mg/kg), 12 hours apart, followed by mouse G-CSF (R&D Systems; 2 μg/mouse) fours hours after the second dose of Mab. As a positive control, we used a rat anti-mouse G-CSF Mab (Mab414, R&D Systems; 10 μg/mouse) given at the same interval as anti-Bv8, followed by mouse G-CSF. After six hours, mice were bled and the frequency of CD11b+Gr1+ cells was determined as described. To determine the role of G-CSF in regulating Bv8 expression in the absence of tumor, Balb/c nude mice were given daily i.p. injections of control rat IgG (Genentech) or rat anti-G-CSF Mab (Mab414, R&D Systems, 10 μg/mouse) for eight consecutive days. Animals were euthanized and total proteins were extracted from BMMNCs. Bv8 levels were measured by ELISA, as described. To assess the significance of G-CSF in regulating Bv8 expression in tumors, Balb/c nude mice were pretreated with 10 μg of rat anti-G-CSF Mab or rat IgG as above described, followed after 12 hours by implantation with HM7 cells (5×10^6 per mouse). Controls were implanted with empty Matrigel™. Animals then received daily administration of antibodies for two days. Forty-eight hours after Matrigel™ or tumor implantation, mice were euthanized and Bv8 levels in BMMNCs were measured as described above.

[1] = system: Bv8 and PKR2/EG-VEGFR2 expression; assay: White blood cells from G-CSF treated donors; type: in vivo, human
Procedure: MaxiSorp® 96-well microwell plates (Nalge Nunc International, Rochester, N.Y.) were coated with 1.0 μg/ml 3F1 mouse monoclonal antibody (Genentech Inc.) in 50 mM carbonate buffer, pH 9.6, at 4° C. overnight. Plates were washed with PBS containing 0.05% polysorbate 20 and blocked with 0.5% bovine serum albumin, 15 p.p.m. (parts per million) Proclin 300 (Supelco, Bellefonte, Pa.) in PBS at room temperature for 1 h. After plates were washed, human Bv8 standards (0.020-2.5 ng/ml in 2-fold serial dilution, PeproTech, Rocky Hill, N.J.) and samples (minimum 1:10 dilution) in PBS containing 0.5% bovine serum albumin, 0.05% polysorbate 20, 15 p.p.m. Proclin 300 (Supelco, Bellefonte, Pa.) and 0.35N NaCl (sample buffer) were serially diluted and were added to each well. The plates were incubated for 2 hr at room temperature followed by a washing step. The bound Bv8 was detected by adding the secondary antibody, a biotinylated hamster anti-Bv8 antibody clone 3B8 (Genentech Inc.) followed by adding streptavidin-HRP (GE Healthcare, Buckinghamshire, United Kingdom) and 3,3′,5,5′-tetramethyl benzidine (Kirkegaard & Perry Laboratories, Gaithersburg, Md.) as the substrate. The reaction was stopped by adding 1 M phosphoric acid. Absorbance was read at 450 nm on a ThermoMax microplate reader (Molecular Devices, Menlo Park, Calif.). The titration curves of the standards were calculated using a four-parameter regression curve-fitting program (Genentech Inc). Human Bv8 concentration was calculated by extrapolating the optical density values of samples to the data range in the standard curve. The Bv8 ELISA was capable of measuring up to 10% lysis buffer and had the sensitivity to detect Bv8 as low as 0.20 ng/ml in tissue lysates. […] This ELISA could also detect mouse Bv8 but with less than 7% sensitivity.
Peripheral white blood cells were obtained from normal donors after 4-5 days of G-CSF treatment by apheresis collections (Cellular Therapy and Cell Processing Facilities, Fred Hutchinson Cancer Research Center, Seattle, Wash.). […]

B1: G-CSF: recombinant granulocyte-CSF: mouse or human (R&D Systems) or human Neupogen (Amgen) (protein, chains of the INN, looked up)
chain: MTPLGPASSLPQSFLLKCLEQVRKIQGDGAALQEKLCATYKLCHPEELVLLGHSLGIPWAPLSSCPSQALQLAGCLSQLHSGLFLYQGLLQALEGISPELGPTLDTLQLDVADFATTIWQQMEELGMAPALQPTQGAMPAFASAFQRRAGGVLVASHLQSFLEVSYRVLRHLAQP
stimulation of Bv8 expression in CD11b+Gr1+ cells (Bv8 expression; hypoxic conditions): ~10 fold | stimulation of Bv8 expression in CD11b+Gr1+ cells (Bv8 expression; normoxic conditions): ~5 fold | Bv8 up-regulation in purified CD11b+Gr1+ cells (Bv8 expression; 10 ng/ml, 4 hr): over 100 fold | up-regulation of Bv8 in unsorted BMMNCs (Bv8 expression; 10 ng/ml, 4 hr): > 27 fold | mobilization of CD11b+Gr1+ to the peripheral blood (CD11b+Gr1+ cells): significant mobilization | increase in Bv8 protein level in G-CSF mobilized mononuclear cells ([1]; ELISA, vs untreated donors): 10 fold | increase in Bv8 expression in G-CSF mobilized mononuclear cells ([1]; donors treated 4-5 days, vs untreated donors): About 4.5 fold | induction of PKR2/EG-VEGFR2 expression in mononuclear cells ([1]; vs un-treated control samples): ~2 fold
